This is an account of results in patent US20250257332A1, “TRUNCATED AND FUSION PROTEINS” (Monash University, priority 2021, published 2025).

“Also recorded” adds a separate entry of the source.

For assay [1], the system named is C2C12 murine myoblast cells. The experiment in a line: C2C12 cell proliferation, CyQuant Proliferation Assay kit. It is filed as cell-based, mouse. Conditions: 20 nM, 48 hours, compared with full-length NAMPT. The procedure: FIG. 7. Human NAMPT variants stimulate muscle progenitor proliferation. C2C12 mouse myoblasts were treated with 20 nM full length NAMPT (NAMPT) or NAMPT variants for (NAMPTxxx-xxx, where xxx are amino acid numbers) 48 hours. Quantification of cell proliferation was performed using CyQuant Proliferation Assay kit. […] Box and whiskers denote median with minimum and maximum values. n=4-5 independent experiments per protein. Statistical significance is indicated as exact p-value. […] Significance between conditions were analysed by one-way ANOVA with Tukey post-hoc test.
Human NAMPTcif (hNAMPTcif) and truncated variants of hNAMPTcif were designed by progressively removing N-terminal regions containing positively charged amino acids. Four truncations were produced and numbered T1 to T4. Recombinant protein was produced using a bacterial expression system. hNAMPTcif variants were purified by FPLC using His-tag affinity purification. Cell proliferation assays were performed using C2C12 murine myoblast cells treated with purified recombinant hNAMPTcif variants, as well as full length NAMPT. Cells were treated with 10 nM of recombinant protein for 48 hours in DMEM supplemented with 2% foetal bovine serum at 37° C., 5% CO2. PBS treatment was used as a negative control. 10% foetal bovine serum was used as positive control. Quantification of proliferation was performed using commercially-available CyQuant Proliferation Assay kit (Thermo Fisher Scientific) according to manufacturer's instructions and read using a Synergy H1 plate reader (BioTek). Data were presented as percentage increase versus.
The heparin-binding sequence of placenta growth factor 2 (PIGF2) was fused to the N-terminus of NAMPTcif and produced using a bacterial expression system. PIGF-NAMPTcif was purified by FPLC using His-tag affinity purification followed by size exclusion chromatography. Cell proliferation assays were performed using C2C12 murine myoblast cells treated with purified recombinant NAMPTcif and full length NAMPT. Cells were treated with 2 nM, 10 nM and 20 nM concentrations of recombinant protein for 48 hours in DMEM supplemented with 2% foetal bovine serum at 37° C., 5% CO2. PBS treatment was used as a negative control. 10% foetal bovine serum was used as positive control. Quantification of proliferation was performed using commercially-available CyQuant Proliferation Assay kit (Thermo Fisher Scientific) according to manufacturer's instructions and read using a Synergy H1 plate reader (BioTek). Data were presented as percentage increase versus negative control. A two-tailed unpaired t-test was used to determine statistical significance.

The next assay relates to C2C12 myoblasts. The experiment in a line: C2C12 myoblast proliferation by EdU incorporation. It is filed as cell-based, mouse. Conditions: exogenously added factor vs control. The procedure: FIG. 2. […] In vitro assay assessing the effects of exogenously introduced factors on C2C12 myoblast proliferation. Proliferation is identified by EdU incorporation. […] Mean+S.D. Two-way ANOVA with Tukey's multiple comparison test. […] Mean±SEM
The mouse muscle cell line C2C12 (Yaffe, D. & Saxel, O. Serial passaging and differentiation of myogenic cells isolated from dystrophic mouse muscle. Nature 270, 725 (1977) were cultured in growth media (Dulbecco's Modified Eagle Medium (4.5 g/l D-Glucose, No L Glutamine, No Sodium Pyruvate (Gibco))+20% Fetal Bovine Solution-One Shot (Gibco)+1% Glut Max 100×(Gibco)). Cells were maintained at 37° C., 5% CO2. Cells at 70% confluence, passage 8 were extracted from T75 flasks with 0.025% Tryspin EDTA (Gibco), neutralised in growth media, spun at 180×g for 5 min to pellet cells. The cells were then resuspended in 10 ml of fresh growth media. 500 μl of cells were plated on a 8-well on cover glass II (Sarstedt) chamber slide at a density of 1×10^3 cells/ml. Cells were left 4 h at 37° C. to re-attach. For drug treatments, the media were supplemented with appropriate doses and cultured for 6 h.

Assay [2] relates to Human primary satellite cells. The experiment in a line: Human primary satellite cell proliferation, CyQuant. It is filed as cell-based. Conditions: 20 nM; 48 hours; media with IGF-1 and FGF-2. The procedure:
(§1) FIG. 8. Human NAMPT variants stimulate human satellite cell proliferation. Human primary satellite cells were treated with 20 nM full length NAMPT (NAMPT) or NAMPT variants (NAMPTxxx-xxx, where xxx are amino acid numbers) for 48 hours. The media contained the growth factors IGF-1 and FGF-2 as well. Quantification of cell proliferation was performed using CyQuant Proliferation Assay kit. […] Treatment with 20% FBS was used as a positive control. Box and whiskers denote median with minimum and maximum values. n=6-10 independent experiments per protein. Statistical significance is indicated as p-value and determined by one-sample t-test.
The inventors next sought to compare the activity of full length NAMPT, NAMPT402-491 and NAMPT422-491 on human satellite cell proliferation. Human primary satellite cells were treated with 20 nM full length NAMPT (NAMPT) or NAMPT402-491 and NAMPT422-491 for 48 hours.

The test system of assay [3] is needle-stab muscle injury in zebrafish larvae. Kind of assay: Larval zebrafish muscle injury and EdU pulse-chase. It is filed as in vivo. Particulars: 57 nM in Ringer's solution immediately after injury at 4 dpf; EdU at 2 dpi. The procedure:
Zebrafish larvae (4 dpf) were anaesthetized in 0.01% tricaine (MS-222) (Sigma-Aldrich) in Ringer's solution. Needle-stab injury was carried out in the dorsal myotome, consisting in a single 30-gauge needle puncture that generates an extensive injury with many damaged muscle fibres. Nampt fragment treatments were carried out by incubating 4 dpf needle-stab-injured larvae in 57 nM Nampt in Ringer's solution immediately after injury. Needle-stab-injured larvae at 6 dpf (2 dpi) were transferred into Ringer's solution containing 50 μg ml-1 EdU (Thermo Fisher Scientific) for 1 h and chased for a further 1.5 h before fixation. Samples were developed using the Click-iT EdU Alexa Fluor 647 imaging Kit (Thermo Fisher Scientific) following the manufacturer's protocol, followed by a phalloidin immunostaining (Thermo Fisher Scientific). EdU+ cells in a region encompassing two myotomes on either side of the injury were quantified as the number of EdU+ cells outside the injury region. EdU+ cells in the caudal haematopoietic tissue were excluded from this analysis. Statistical analysis has been conducted using Two-way ANOVA with Tuckey's multiple comparison test.

Assay [4] deals with Human primary endothelial cells derived from umbilical vein. Kind of assay: Human primary endothelial cell proliferation, CyQuant. It is filed as cell-based. Conditions: 20 nM; 48 hours. The procedure:
as §1, with “9.” for “8.”, “endothelial” for “satellite”, “cells derived from umbilical vein” for “cells”, “hours.” for “hours. The media contained the growth factors IGF-1 and FGF-2 as well.”, “10%” for “20%”, “n=6” for “n=6-10”
Similarly, the inventors next investigated the activity of full length NAMPT, NAMPT402-491 and NAMPT422-491 on human endothelial cell proliferation. Human endothelial cells were derived from umbilical vein and treated with 20 nM full length NAMPT (NAMPT) or NAMPT variants for 48 hours.

B1: NAMPT430-491: Truncated hNAMPTcif, residues 430-491 of full length NAMPT, SEQ ID NO: 8 (His-tagged: SEQ ID NO: 9) (protein)
chain: LSLHRTPAGNFVTLEEGKGDLEEYGQDLLHTVFKNGKVTKSYSFDEIRKNAQLNIELEAAHH
With B1, the “cell proliferation, percentage increase vs PBS-treated control” value in assay [1] is recorded as “enhanced cellular proliferation compared to full-length NAMPT”.

B2: CCL8/MCP-2: canonical CCR5 ligand (protein, UniProt Q9Z121 24-97, looked up)
C-C motif chemokine 8: GPDKAPVTCCFHVLKLKIPLRVLKSYERINNIQCPMEAVVFQTKQGMSLCVDPTQKWVSEYMEILDQKSQILQP
Take B2: the results for the “myoblast proliferation (EdU incorporation), factor alone” value (“myoblast proliferation” below) in the assay with C2C12 myoblasts and with C2C12 myoblasts (listed as mrCCL8) were “could be recapitulated” and “functioned to enhance C2C12 proliferation”, respectively.

B3: hrNAMPT(2): Second commercially available human recombinant NAMPT protein source (protein)
chain: MNPAAEAEFNILLATDSYKVTHYKQYPPNTSKVYSYFECREKKTENSKLRKVKYEETVFYGLQYILNKYLKGKVVTKEKIQEAKDVYKEHFQDDVFNEKGWNYILEKYDGHLPIEIKAVPEGFVIPRGNVLFTVENTDPECYWLTNWIETILVQSWYPITVATNSREQKKILAKYLLETSGNLDGLEYKLHDFGYRGVSSQETAGIGASAHLVNFKGTDTVAGLALIKKYYGTKDPVPGYSVPAAEHSTITAWGKDHEKDAFEHIVTQFSSVPVSVVSDSYDIYNACEKIWGEDLRHLIVSRSTQAPLIIRPDSGNPLDTVLKVLEILGKKFPVTENSKGYKLLPPYLRVIQGDGVDINTLQEIVEGMKQKMWSIENIAFGSGGGLLQKLTRDLLNCSFKCSYVVTNGLGINVFKDPVADPNKRSKKGRLSLHRTPAGNFVTLEEGKGDLEEYGQDLLHTVFKNGKVTKSYSFDEIRKNAQLNIELEAAHH
With B3, the “myoblast proliferation” value in the assay on C2C12 myoblasts is “dose dependent increase in myoblast proliferation; also recorded: comparable and significant dose dependent increases in myoblast proliferation”.

B4: NAMPT422-491: Truncated hNAMPTcif, residues 422-491 of full length NAMPT, SEQ ID NO: 6 (His-tagged: SEQ ID NO: 7) (protein)
chain: NKRSKKGRLSLHRTPAGNFVTLEEGKGDLEEYGQDLLHTVFKNGKVTKSYSFDEIRKNAQLNIELEAAHH
Turning to B4, the “satellite cell proliferation, percentage increase vs PBS-treated control” value in assay [2] was “even greater satellite cell proliferation compared to both full length NAMPT and NAMPT402-491”. For the same molecule, the “cell proliferation (EdU-positive cells) within the injury zone” value in assay [3] is given as “significant increase in cell proliferation within the injury zone; also recorded: significantly higher levels as compared to human recombinant-NAMPT (hrNAMPT)”. For the same molecule, the “endothelial cell proliferation, percentage increase vs PBS-treated control” value in assay [4] is given as “still stimulated endothelial cell proliferation above negative control”. For the same molecule, the “cell proliferation, percentage increase vs PBS-treated control” value in assay [1] was “highest cellular proliferation compared to all NAMPT variants tested; also recorded: statistically significant increase in proliferation”.

B5: hrNAMPT(1): Commercially available human recombinant NAMPT source 1 (Peprotech); used in the mouse injury model (protein)
chain: PPNTSKVYSYFECREKKTENSKLRKVKYEETVFYGLQYILNKYLKGKVVTKEKIQEAKDVYKEHFQDDVFNEKGWNYILEKYDGHLPIEIKAVPEGFVIPRGNVLFTVENTDPECYWLTNWIETILVQSWYPITVATNSREQKKILAKYLLETSGNLDGLEYKLHDFGYRGVSSQETAGIGASAHLVNFKGTDTVAGLALIKKYYGTKDPVPGYSVPAAEHSTITAWGKDHEKDAFEHIVTQFSSVPVSVVSDSYDIYNACEKIWGEDLRHLIVSRSTQAPLIIRPDSGNPLDTVLKVLEILGKKFPVTENSKGYKLLPPYLRVIQGDGVDINTLQEIVEGMKQKMWSIENIAFGSGGGLLQKLTRDLLNCSFKCSYVVTNGLGINVFKDPVADPNKRSKKGRLSLHRTPAGNFVTLEEGKGDLEEYGQDLLHTVFKNGKVTKSYSFDEIRKNAQLNIELEAAHH
Regarding B5, the “myoblast proliferation” value in the assay on C2C12 myoblasts was “dose dependent increase in myoblast proliferation; also recorded: comparable and significant dose dependent increases in myoblast proliferation”.

B6: CCL4/MIP-1β: canonical CCR5 ligand (protein, UniProt P14097 24-92, looked up)
C-C motif chemokine 4: APMGSDPPTSCCFSYTSRQLHRSFVMDYYETSSLCSKPAVVFLTKRGRQICANPSEPWVTEYMSDLELN
For B6, the “myoblast proliferation” value is “could be recapitulated” with C2C12 myoblasts and “functioned to enhance C2C12 proliferation” in the assay with C2C12 myoblasts (listed as mrCCL4).

B7: NAMPT414-491: Truncated hNAMPTcif, residues 414-491 of full length NAMPT, SEQ ID NO: 4 (His-tagged: SEQ ID NO: 5) (protein)
chain: FKDPVADPNKRSKKGRLSLHRTPAGNFVTLEEGKGDLEEYGQDLLHTVFKNGKVTKSYSFDEIRKNAQLNIELEAAHH
Take B7: the “cell proliferation, percentage increase vs PBS-treated control” value in assay [1] is listed as “enhanced cellular proliferation compared to full-length NAMPT”.
